Laboratory results taken from patent US20050042664A1 (AstraZeneca / MedImmune, published 2005).
Substitutions are numbered along the chain they refer to.

B1: Humanized version I of EP101 (hu IgG1) (antibody, V domains shown)
VH: QMQLVQSGPEVKKPGTSVKVSCKASGFTFTDYSMNWVRQARGQRLEWLGFIRNKANDYTTEYSASVKGRVTITRDMSTSTAYMELSSLRSEDTAVYYCARYPRYHAMDSWGQGTSVTVSS
VL: DIVMTQSPSSLSASVGDRVTIICRASQSISNNLHWYQQKPGKAPKLLIKYVFQSISGVPSRFSGSGSGTDFTFTISSLQPEDFATYYCQQSNSWPLTFGGGTKVEIK
B2: Humanized version III of EP101 (hu IgG1) (antibody, V domains shown)
VH: B1 VH with L48I
VL: B1 VL
B3: Humanized version II of EP101 (hu IgG1) (antibody, V domains shown)
VH: B1 VH with L48I
VL: B1 VL with V3Q, I22T
B4: Mouse version of EP101 (mouse IgG) (antibody, V domains shown)
VH: EVKLVESGGGLVQPGGSLSLSCAASGFTFTDYSMNWVRQPPGKALEWLGFIRNKANDYTTEYSASVKGRFTISRDNSQSILYLQMNALRAEDSATYYCVRYPRYHAMDSWGQGTSVTVSS
VL: DIVLTQSPATLSVTPGDSVNLSCRASQSISNNLHWYQQKSHESPRLLIKYVFQSISGIPSRFSGSGSGTDFTLSINSVETEDFGMYFCQQSNSWPLTFGAGTKLELK
notes: Mouse IgG; also called anti-human EphA2 monoclonal antibody EP101; parental murine antibody
B5: Chimaeric version of EP101 (hu IgG1) (antibody, V domains shown)
VH: B4 VH
VL: B4 VL
notes: Chimeric Fab cloned and expressed as a full length human IgG1; also called chimeric version of anti-EphA2 antibody

Biological target: T1, human EphA2 (human, UniProt P29317 24-534, limits assumed)
T1 construct: Target of the BIAcore analysis as named in the text
T1 sequence (P29317 24-534 limits assumed): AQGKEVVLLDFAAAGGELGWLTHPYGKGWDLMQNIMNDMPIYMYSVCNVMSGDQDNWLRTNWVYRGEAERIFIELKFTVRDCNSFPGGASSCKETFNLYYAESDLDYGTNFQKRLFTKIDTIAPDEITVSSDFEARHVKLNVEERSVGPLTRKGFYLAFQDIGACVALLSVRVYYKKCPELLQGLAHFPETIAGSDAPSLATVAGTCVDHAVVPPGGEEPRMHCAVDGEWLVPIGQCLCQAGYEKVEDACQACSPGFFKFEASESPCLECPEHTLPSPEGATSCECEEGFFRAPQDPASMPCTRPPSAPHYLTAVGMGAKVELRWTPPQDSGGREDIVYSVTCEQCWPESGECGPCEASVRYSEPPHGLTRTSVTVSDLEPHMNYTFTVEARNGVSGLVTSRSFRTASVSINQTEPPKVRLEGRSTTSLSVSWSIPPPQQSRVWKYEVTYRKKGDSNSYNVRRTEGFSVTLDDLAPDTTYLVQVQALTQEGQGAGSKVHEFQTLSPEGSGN
Experiment: BIAcore; format not stated

Row | Binder | Kd | koff | kon
1 | B1 | 0.7 nM | 3.76e-05 s⁻¹ | 53200 M⁻¹ s⁻¹
2 | B2 | 1.3 nM | 7.62e-05 s⁻¹ | 60000 M⁻¹ s⁻¹
3 | B3 | 1.2 nM | 4.13e-05 s⁻¹ | 35600 M⁻¹ s⁻¹
4 | B4 | 0.3 nM | 0.000101 s⁻¹ | 330000 M⁻¹ s⁻¹
5 | B5 | 0.3 nM | 8.04e-05 s⁻¹ | 242000 M⁻¹ s⁻¹
